Patent US20210332145A1 (SINGLE CELL TECHNOLOGY, published 2021)

Key:
[1] = target: T1, BCMA on cells (293T cells transfected with BCMA; H929, MM.1S and U266 cell lines expressing BCMA) (human, UniProt Q02223 1-184); test: flow cytometry, H929 cells
T1 construct: H929, MM.1S and U266 carry the native protein; also called B-cell Maturation Antigen; TNFRSF17
T1 sequence: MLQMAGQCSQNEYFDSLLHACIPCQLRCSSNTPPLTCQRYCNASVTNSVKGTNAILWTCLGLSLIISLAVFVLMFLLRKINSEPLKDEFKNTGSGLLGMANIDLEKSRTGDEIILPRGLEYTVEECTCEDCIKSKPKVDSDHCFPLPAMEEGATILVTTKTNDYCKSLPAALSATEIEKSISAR

[2] = target: T2, human BCMA with a His tag (ACROBiosystems, Catalog No.: BCA-H522y) (human); test: ELISA, plate-coated human BCMA-His
T2 construct: Bought His-tagged recombinant protein; also called huBCMA-His; Recombinant human BCMA
T2 chain: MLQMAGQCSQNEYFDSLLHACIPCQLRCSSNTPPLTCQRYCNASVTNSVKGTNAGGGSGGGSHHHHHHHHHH
Protocol: (§1) The recombinantly expressed antibodies were used to assess binding activity to BCMA of different species origins by conventional ELISA according to the known art. Recombinant human BCMA, cyno BCMA, and mouse BCMA were coated onto ELISA plates to detect binding at serially diluted concentrations of the anti-BCMA antibody preparations.
(§2) The ability for antibodies of the present disclosure to bind human BCMA was measured with an ELISA assay. For the BCMA binding assay, a 96-well plate (Nunc) is coated with human BCMA with a His tag (ACROBiosystems, Catalog No.: AC108P1-180611F2-Bulk, SEQ ID NO:2) at 0.2 μg/well overnight at 4° C. Wells are blocked for 2 h with blocking buffer (PBS containing 3% bovine serum albumin). Wells are washed three times with PBS containing 0.1% Tween-20. Anti-human BCMA antibodies of the present disclosure or control IgG (100 μL) is then added and incubated at room temperature for 1 h. After washing, the plate is incubated with 100 μL of goat anti-mouse IgG Fcγ Fragment Specific-HRP conjugate (Jackson ImmunoResearch) at room temperature for 1 h. The plates are washed and then incubated with 100 μL of 3,3′,5,5′-tetra-methylbenzidine. The absorbance at 450 nm is read on a microplate reader. The half maximal effective concentration (EC50) is calculated using GraphPad Prism 6 software.
In experiments performed essentially as described above, anti-human BCMA antibodies of the present disclosure bind human BCMA with a His tag (ACROBiosystems, Beijing, China, Catalog No.: BCA-H522y, SEQ ID NO:2) with an EC50 values shown in Table 3.

[3] = target: T3, cyno BCMA with a His tag (ACROBiosystems, Catalog No.: BCA-052H7) (cyno); test: ELISA, plate-coated cyno BCMA-His
T3 construct: Bought His-tagged recombinant protein
Protocol: as §1, §2
In experiments performed essentially as described above, anti-human BCMA antibodies of the present disclosure bind cyno BCMA with a His tag (ACROBiosystems, Beijing, China, Catalog No.: BCA-052H7, SEQ ID NO:110) with an EC50 values shown in Table 4.

[4] = target: T4, mouse BCMA with a His tag (ACROBiosystems, Catalog No.: BCA-M52H3) (mouse); test: ELISA, plate-coated mouse BCMA-His
T4 construct: Bought His-tagged recombinant protein
T4 chain: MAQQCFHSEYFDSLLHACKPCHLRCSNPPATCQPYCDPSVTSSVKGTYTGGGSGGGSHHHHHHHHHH
Protocol: as §1, §2
In experiments performed essentially as described above, anti-human BCMA antibodies of the present disclosure bind mouse BCMA with a His tag (ACROBiosystems, Beijing, China, Catalog No.: BCA-M52H3, SEQ ID NO:109) with an EC50 values shown in Table 5.

[5] = target: T2, human BCMA with a His tag …; test: SPR, Biacore T200
Protocol: The binding affinity of select anti-BCMA was measured on a surface plasmon resonance (SPR) instrument, Biacore T200™, against human BCMA by a method known in the art.
In experiments performed essentially as described above, a subset of anti-human BCMA antibodies of the present disclosure bind human BCMA with a His tag (ACROBiosystems, Beijing, China, Catalog No.: BCA-H522y, SEQ ID NO:2) with affinity shown in Table 6.

[6] = target: T1, BCMA on cells (293T cells transfected …); test: flow cytometry, 293T cells transfected with BCMA, above parental 293T background
[7] = target: T1, BCMA on cells (293T cells transfected …); test: flow cytometry, H929 cells; remark: listed apart in the source
Protocol: A cell line expressing BCMA, H929, was used to assess binding by anti-BCMA antibodies on the native protein on the cell surface by flow cytometry according to the known art. A subset of anti-human BCMA antibodies were assayed for binding to H929 and the fraction of cells bound the labeled antibody above background defined by control is shown in Table 8.

[8] = target: T1, BCMA on cells (293T cells transfected …); test: flow cytometry, 293T cells transfected with BCMA

T3 sequence (chain, as listed by the source limits assumed): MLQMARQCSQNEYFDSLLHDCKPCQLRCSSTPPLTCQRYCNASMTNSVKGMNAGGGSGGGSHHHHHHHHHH

B1: SCT-Aa04(m/m) (antibody, V domains shown)
VH: EVKLLQSGGGLVQPGGSLKLSCAASGIDFSRYWMSWVRRAPGKGLEWIGEINPDSSTINYAPSLKDKFIISRDNAKNTLYLQMSKVRSEDTALYYCASFYYDYDRGAAMDYWGQGTSVTVSS
VL: DIVMTQSQKFMSTSVGDRVSVTCKASQNVGTNVAWYQQKPGQSPKALIYSASYRYSGVPDRFTGSGSGTDFTLTISNVQSEDLAEYFCQQYNSYPYTFGGGTKLEIK
notes: Full IgG format: mouse IgG1 heavy chain constant region, mouse kappa light chain constant region
What does the source list for B1?
Mean fluorescent intensity [1]: 3790; EC50 [2]: 0.00232 µg/mL; EC50 [3]: 2.05 µg/mL; EC50 [4]: 0.0343 µg/mL; Kd [5]: 5.62 nM; koff [5]: 0.0126 s⁻¹; kon [5]: 2.25e+06 M⁻¹ s⁻¹; Positive (%) [6]: 88.9%; Positive (%) [7]: 99.9%

B2: SCT-Aa03(h/h) (antibody, V domains shown)
VH: EVKLLQSGGGLVQPGGSLKLSCAASGIDFSRYWMSWVRRAPGKGLEWIGEINPDSSTINYAPSLKDKFIISRDNAKNTLYLQMSKVRSEDTALYYCASFYYDYDHAMDYWGQGTSVTVSS
VL: DIVMTQSQKFMSTSVGDRFSVTCKASQNVGTNVAWYQQKPGQSPKALIYSASYRFSGVPDRFTGSGSGTDFTLTISNVQSEDLAEYFCQQYNSYPFTFGSGTKLEIK
notes: Full IgG format, chimeric: human IgG1 heavy chain constant region, human kappa light chain constant region
With B2 as the binder, how does the Mean fluorescent intensity [1] read?
Its Mean fluorescent intensity is 1070.

What about the EC50 [2] of the same binder?
The EC50 was 0.00346 µg/mL.

What about the EC50 [3] of the same binder?
The EC50 was 1.6 µg/mL.

And the EC50 [4]?
Its EC50 is 0.0108 µg/mL.

And the Kd [5]?
The Kd was 9.49 nM.

And the koff [5]?
The koff was 0.00284 s⁻¹.

What about the kon [5] of the same binder?
Its kon is 299000 M⁻¹ s⁻¹.

And the “Positive (%)” value [6]?
The value was 75.1%.

And the “Positive (%)” value [7]?
The value was 98.2%.

B3: SCT-Aa02 (antibody, V domains shown)
VH: EVKLLQSGGGLVQPGGSLKLSCAASGIDFSRYWMSWVRRAPGKGLEWIGEINPDSSTINSAPSLEDKFIISRDNAKNTLYLQMSKVRSEDTALYYCASLYYDYERDYAMDYWGQGASVTVSS
VL: DIVMTQSQKFMSTSVGDRVSVTCKASQNVGTNVAWYQQKPGQSPKALIYSASYRFSGVPDRFTGSGSGTDFTLTISNVQSEDLAEYFCQQYHSYPFTFGGGTKLEIK
Does B3 bind [8]?
Result: binds

B4: SCT-Aa17(h/h) (antibody, V domains shown)
VH: EVQLQQSGPELVKPGASVKMSCKASGYTFTSYVMDWVKQKPGQGLEWIGYINPYNDGTKYNEKFKGKATLTSDKSSSTVYMELSSLTSEDSAVYHCARSDYDYGYAMDYWGQGTSVTVSS
VL: DIQMTQSPASLSLSVGETVTITCRASENIYSNLAWYQQKQGNSPQLLVYSATHLADGVPSRFSGSGSGTQYSLKINSLQSEDFGCYYCQHFWGPPWTFGGGTKLEIK
notes: as for B2
Which Mean fluorescent intensity [1] does the source give for B4 here?
Its Mean fluorescent intensity is 232.

And the EC50 [2]?
Its EC50 is 0.00356 µg/mL.

What about the EC50 [3] of the same binder?
The EC50 was 2.17 µg/mL.

And the EC50 [4]?
Its EC50 is 4.33 µg/mL.

What about the Kd [5] of the same binder?
Its Kd is 2.45 nM.

What about the koff [5] of the same binder?
The koff was 0.0132 s⁻¹.

What about the kon [5] of the same binder?
The kon was 5.39e+06 M⁻¹ s⁻¹.

What about the “Positive (%)” value [6] of the same binder?
Its value is 43%.

And the “Positive (%)” value [7]?
Its value is 75%.

B5: SCT-Aa18(h/h) (antibody, V domains shown)
VH: EVQLQQSGPELVKPGASVKISCKASGYTFISYVMHWVKQKPGQGLEWIGYIIPYNDGTKYNEKFKGKATLTSDKSSSTAYMELSSLTSEDSAVYYCAKWGNWDEGTWFPYWGQGTLVTVSA
VL: DVLMTQTPLSLPVSLGDQASFSCRSSQSIVHSDGNTYLEWYLQKPGQSPKLLIYKISNRFSGVPDRFSGSGSGTDFTLKISRVEAEDLGVYYCFQGSHVPWTFGGGTKLEIK
notes: as for B2
Which Mean fluorescent intensity [1] does the source give for B5 here?
Its Mean fluorescent intensity is 875.

And the EC50 [2]?
Its EC50 is 0.00268 µg/mL.

What about the EC50 [3] of the same binder?
Its EC50 is 0.0788 µg/mL.

What about the EC50 [4] of the same binder?
Its EC50 is 0.271 µg/mL.

And the Kd [5]?
The Kd was 12.2 nM.

What about the koff [5] of the same binder?
The koff was 0.0506 s⁻¹.

What about the kon [5] of the same binder?
The kon was 4.15e+06 M⁻¹ s⁻¹.

And the “Positive (%)” value [6]?
Its value is 76.1%.

And the “Positive (%)” value [7]?
The value was 97%.

B6: SCT-Aa13(h/h) (antibody, V domains shown)
VH: QVQLQQSDAELVKPGASVKISCKVSGYTFTDYTIHWMKQRPEQGLEWIGYIYPRDGSTKYNEKFKGKATLTADKSSSTAYMQLNSLTSEDSAVYFCARWDYEGFDYWGQGTTLTVSS
VL: DIVMTQSPATLSVTPGDRVSLSCRASQSISDYLHWYQQKSHESPRLLIKYASQSISGIPSRFSGSGSGSDFTLSINSVEPEDVGVYYCQNGHSFPPTFGSGTKLEIK
notes: as for B2
With B6 as the binder, how does the Mean fluorescent intensity [1] read?
The Mean fluorescent intensity was 756.

What about the EC50 [2] of the same binder?
The EC50 was 0.00268 µg/mL.

What about the EC50 [3] of the same binder?
The EC50 was 0.131 µg/mL.

And the EC50 [4]?
Its EC50 is 0.019 µg/mL.

And the Kd [5]?
The Kd was 4.85 nM.

And the koff [5]?
Its koff is 0.0157 s⁻¹.

And the kon [5]?
Its kon is 3.23e+06 M⁻¹ s⁻¹.

And the “Positive (%)” value [6]?
Its value is 74.3%.

What about the “Positive (%)” value [7] of the same binder?
Its value is 96.5%.

B7: SCT-Aa06(h/h) (antibody, V domains shown)
VH: EVQLQQSGPELVKPGNSVKISCKASGYSFTGYFMNWVMQSHGKSLEWIGRINPYNGDTFYNQKFKGKATLTVDKSSSTAHMELRSLTSEDSAVYYCARLDYTNYNSYPMDYWGQGTSVTVSS
VL: DIQMTHTTSSLSASLGDRVTISCSASQGISNYLNWYLQKPDGTVKLLIYYTSNLHSGVPSRFSGSGSGTDFSLTISNLQPEDIATYYCQQYSKFPWTFGGGTKLEIK
notes: as for B2
For B7, which Mean fluorescent intensity [1] is on record?
Its Mean fluorescent intensity is 1260.

And the EC50 [2]?
The EC50 was 0.00278 µg/mL.

What about the EC50 [3] of the same binder?
Its EC50 is 0.0976 µg/mL.

And the EC50 [4]?
The EC50 was 0.0972 µg/mL.

What about the Kd [5] of the same binder?
Its Kd is 5.38 nM.

What about the koff [5] of the same binder?
The koff was 0.02 s⁻¹.

And the kon [5]?
Its kon is 3.72e+06 M⁻¹ s⁻¹.

And the “Positive (%)” value [6]?
Its value is 82.8%.

What about the “Positive (%)” value [7] of the same binder?
Its value is 99.6%.

B8: SCT-Aa16(h/h) (antibody, V domains shown)
VH: EVQLQQSGPELVKPGASVKMSCKGSGYTFTNYIMHWVKQKPGQGLEWIGYIIPYNDNTKYNEKFKGKATLTSDKSSSTAYMELSSLTSEDSAVYYCATYEYDVGLDYWGQGTTLTVSS
VL: DLQMTQTTSSLSASLGDRVTISCSARQGIVNYLNWYQQKPDGTVKLLIYNTSSLHSGVPSRFSGSGSGTDYSLTISNLEPEDIATYYCQQYSKLPWTFGGGTKLEIK
notes: as for B2
Which results are given for B8?
Mean fluorescent intensity [1]: 853; EC50 [2]: 0.00201 µg/mL; EC50 [3]: 0.0778 µg/mL; EC50 [4]: 1.08 µg/mL; Kd [5]: 26.7 nM; koff [5]: 0.199 s⁻¹; kon [5]: 7.43e+06 M⁻¹ s⁻¹; Positive (%) [6]: 68.1%; Positive (%) [7]: 96.1%
